Results published in the supplement of paper PMC12764529.
± gives the half width of the 95% confidence interval.

Experiments:
[1] = folding stability dG unfold (combined trypsin and chymotrypsin); higher = more stable
Procedure, shortened: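 Unfolding free energy was derived, per protease or combined, against a sequence-predicted unfolded-state K50 and a shared folded-state K50, starting from K50 inferred by Bayesian fitting of sequencing counts. Digestion with trypsin and chymotrypsin was carried out on designed mini-proteins under 80 residues without cysteine in a PA-tagged cDNA display construct. Only designs with AlphaFold2 dimer inter-PAE above 15 were kept.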

[2] = folding stability dG unfold from chymotrypsin proteolysis; higher = more stable
Method: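 Folding stability of de novo designed mini-proteins (<80 aa, no Cys; designed by TrROS, TrMRF, ProteinMPNN and the joint model) was measured by cDNA display proteolysis with trypsin and chymotrypsin. Each protease was used at 11 concentrations in a threefold dilution series plus a no-protease condition. K50 was inferred by Bayesian fitting of sequencing counts, and dG unfold was derived against a sequence-predicted unfolded-state K50 (Tsuboyama et al. method). Sequences shown include variable-length N-terminal GS-type padding (SAGGSAGG...) inside a display construct carrying a PA tag. Rows were kept only if the AF2 dimer inter-PAE was >15, to exclude likely homo-oligomers.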

Row | Sequence | folding stability dG unfold [1] | folding stability dG unfold [2]
1 | SAGGMRLEHLRNMIKNMPPGMKDVNINQHPGHGNYTFSVENPNKPVSIPFDSPEDQQEIQELAREYVKSAGG [r13_287_TrROS] | -0.417 ± 0.29 kcal/mol | 0.19 ± 0.19 kcal/mol
2 | SNLKIKWPNGHEIPIQKNNENVRIKFPGNGQEHPIPKEALEDNTPEEILDHLRDHFRQHGMPPMPVEIEKSA [r9_1211_TrROS] | 0.192 ± 0.38 kcal/mol | 0.602 ± 0.083 kcal/mol
3 | SAGGSAEPTGPPDVEVKRSTSVEGGLTLTPVTYTSPDNTETLVITYTTDPAGNLSSTTATVPPDLVSAGGSA [r15_986_JUSTAS] | -0.00361 ± 0.28 kcal/mol | 0.276 ± 0.36 kcal/mol
4 | SAGGSAGGSAGRRSVPEEVVEAIAEELPREGLTPKSIEVVEGEDEFEAVIEYDDRTITVAGSAGGSAGGSAG [r3_395_JUSTAS] | -0.101 ± 0.1 kcal/mol | 0.492 ± 0.023 kcal/mol
5 | SAGGSAGGSAGGGMDEEETVELDLTTKGTDPAEVEAARAARAEELGLPLADVRVRVSAESAGGSAGGSAGGS [r10_401_JUSTAS] | < -1 kcal/mol | -0.252 ± 0.036 kcal/mol
6 | SAGGSMTIDDLKGMPVKEIAKRLGPGYEVNVDPNHGTLTLQHPNYQVTINVSPKDGYVKITEVTPHSAGGSA [r2_470_TrROS] | < -1 kcal/mol | -0.808 ± 0.32 kcal/mol
7 | SAGGSAGGSMTITVETTSKDPAVAEKELTEKVKKEYPPSVKVEIDPVSSPDGVARVRATIIRESAGGSAGGS [r20_122_JUSTAS] | 0.291 ± 0.19 kcal/mol | 0.529 ± 0.09 kcal/mol
8 | SAGGEDFTIRTRSPNGEEQKFPFKVDNVEIEPENNHYSIHIKDGKKLTIPPGGIDDIEPDDIKDWIKDSAGG [r13_925_TrROS] | -0.373 ± 0.21 kcal/mol | -0.0875 ± 0.29 kcal/mol
9 | SAGGSAGGSAGGMSAEEVREIVEELGFDDPTEVVVLDLPDGRRVLVTNPPDGLRLEVLDSAGGSAGGSAGGS [r10_604_TrMRF] | 0.562 ± 0.12 kcal/mol | 0.967 ± 0.053 kcal/mol
10 | SAGGSAGGSAGGWTLEELKNAPPGEPVTITIPMYSPNGDKKQPMRIRITPDDGEIEIEMSAGGSAGGSAGGS [r10_394_TrROS] | 0.406 ± 0.15 kcal/mol | 0.908 ± 0.13 kcal/mol
11 | SAGGSAGGSAGGAMDLPPSREAEIKLPNGETIRIFRPPDGSITLEFYDKGGKKTKIIPNSAGGSAGGSAGGS [r10_150_JUSTAS] | < -1 kcal/mol | -0.124 ± 0.17 kcal/mol
12 | SAGVRKIPIESADDLRDEIDKSPGPVIIRNKGNKKYHRIDPDDLNNFAKNGAPIEIMPPDEMPPEMRKQSAG [r5_677_TrROS] | -0.332 ± 0.17 kcal/mol | -0.0447 ± 0.14 kcal/mol
13 | SAGGSAGGSSPKAQRLQDRIRQEFPPNEIDKVEMSGDKIVIHGRPGYRQRIQEELGLKNIEIVSAGGSAGGS [r12_748_TrROS] | 0.0708 ± 0.13 kcal/mol | 0.344 ± 0.098 kcal/mol
14 | SAGGSAGGSAGGMIWIPESELSKLPESFKNFKILKKTPLTLPHPSKKNKPVVLVEIEKKESAGGSAGGSAGG [r7_237_JUSTAS] | 0.122 ± 0.53 kcal/mol | 0.696 ± 0.23 kcal/mol
15 | SAGGMAEELAKLLKELFPDEEVEVEVKVEEKEVNGKKYLTITVTVRNKKTGKKIKEIKLVIELPEEESAGGS [r8_207_TrROS_Hall] | > 6 kcal/mol | 4.23 ± 0.32 kcal/mol
16 | SAKKVKIKVVEIEKKEDYVLIKIKLEKNVKKGEKVKIIIKNKNGEKKEITIKNGYIYIKMKKKDIEIKISAG [r14_350_TrROS_Hall] | 3.93 ± 0.85 kcal/mol | 4.1 ± 0.29 kcal/mol
17 | SAGGSAGEAEELAEAREAALRAALPPGTVVEVEVEVRVEREGDREEERVEVRVTVREPGTDRLLLESAGGSA [r15_915_JUSTAS] | -0.173 ± 0.57 kcal/mol | 0.13 ± 0.18 kcal/mol
18 | SAGGSAENLVRTTRTTEALPDGGTRTTTTTTLPGGLTVVTRPYYDPATGTTATTTTTLAPDETVTDSAGGSA [r15_917_JUSTAS] | -0.0377 ± 0.16 kcal/mol | 0.447 ± 0.05 kcal/mol
19 | SAGGSAGGSAGGDPDGKPPPKIEFEMETVPIPNPDGQALEIEIFRIKGNGMLFIMIEPYSAGGSAGGSAGGS [r10_1137_TrROS] | 4.47 ± 0.84 kcal/mol | 4.21 ± 0.29 kcal/mol
20 | SAGGSAGGSAGKEPILAIPNPEFPDVVIIKTKDGVRAVPVEELKELDIDAVMSLEEALASSAGGSAGGSAGG [r17_88_TrMRF] | 0.174 ± 0.2 kcal/mol | 0.731 ± 0.067 kcal/mol
21 | SAGGSAGGSAGGNKKKIELHFFFDPGQPAEEAKDFIRGAALENGDTITDVDIHWVPPEDFSAGGSAGGSAGG [r7_703_TrROS] | -0.384 ± 0.3 kcal/mol | 0.201 ± 0.11 kcal/mol
22 | SAGESTLELTETSFPDGTTARVTTTRYPGLVRREATVTLPDGTVERLSAEVTLDEDEEVVTTSRSPLPSAGG [r19_385_JUSTAS] | -0.666 ± 0.45 kcal/mol | -0.247 ± 0.13 kcal/mol
23 | SAGGSAGGSMTPVHVYVPPSLSPEEARARVRAELRAALPAAEADVPLEDVEVVLRPLPPDVPLSAGGSAGGS [r12_384_JUSTAS] | < -1 kcal/mol | 0.303 ± 0.42 kcal/mol
24 | SAEKVTLTITVKMTEEELKEIAEKVGMKVEITVEKEEDGLYRVTLTFETPEEAEKAREALEKAGYKVEPSAG [r14_745_TrROS_Hall] | 4.6 ± 0.16 kcal/mol | 4.57 ± 0.14 kcal/mol

Row | Sequence | folding stability dG unfold [1] | folding stability dG unfold [2]
25 | SAGDKYRIKMTNPNGKKIEFEIPPNGYIKVRIRNPNNEHEMTIPIPPGETIEEALDNFPPYKISEIEPVSAG [r5_259_TrROS] | 0.328 ± 0.082 kcal/mol | 0.795 ± 0.1 kcal/mol
26 | SAMPITVTVKKTVTLPPPGPEHQKLLDPNGTVRTVTVEETETITVSPEEIEKVKEEAEAKGIEEVTVVDSAG [r14_509_JUSTAS] | 0.267 ± 0.15 kcal/mol | 0.732 ± 0.051 kcal/mol
27 | SGGATVEAFRRAPPGVRARILVEERGEELIVRLEIEGDDRRDEAEFPDPEEALARLLAAGVPVVVDELPASA [r9_1021_TrMRF] | < -1 kcal/mol | -0.708 ± 0.76 kcal/mol
28 | SAGGSAGGSAGGSPSTRTPITVEVKSPTALSRFTYDTGLSPAEIAAPFAAGGYTVTFVSSAGGSAGGSAGGS [r10_540_JUSTAS] | -0.538 ± 0.16 kcal/mol | -0.127 ± 0.22 kcal/mol
29 | SAGGSAGGSAITIKELAKEGYTIEIRPPDGKKETFKPGDSVDDPAEEFDLPPNWRIEIRPPSAGGSAGGSAG [r3_216_TrROS] | < -1 kcal/mol | -0.382 ± 0.3 kcal/mol
30 | SAGKIVIEGEPEKLPEAIEEALKNNPDLKKVTIYYGDKSEEFEKDEEVKFFKPKKNKDGKPFMVLVVEDSAG [r5_130_TrMRF] | -0.00581 ± 0.37 kcal/mol | 0.756 ± 0.23 kcal/mol
31 | SAGGSAMTKKTVVTIPLPPGAEDLSPEEVERRVRDELAAEPARPDVTVEVERLPPEPVVRVTITEASAGGSA [r15_1029_JUSTAS] | -0.307 ± 0.2 kcal/mol | 0.0943 ± 0.046 kcal/mol
32 | SAGGSAGGSADPAFEALARAEGVPVEVTREGDTLVVTARRPDPAGREVVEEFRVPVPPELLESAGGSAGGSA [r18_27_JUSTAS] | < -1 kcal/mol | -0.174 ± 0.14 kcal/mol
33 | SAGGSAGGSMTVTLSYPDGSTVTRPLEGKSLEEAIAALPEDVTEVQVTVLEGSTPVTRTVPRPSAGGSAGGS [r12_767_JUSTAS] | 0.344 ± 0.054 kcal/mol | 0.731 ± 0.023 kcal/mol
34 | SAGGLSVSSVSTGSDKITVTVTGSGSPVATVEIPPGLPNTEVTATVLPDGSVRVELKTGNTPRTIEVPLSAG [r5_533_JUSTAS] | -0.783 ± 0.28 kcal/mol | -0.445 ± 0.14 kcal/mol
35 | SAGGSAGGSAGGMTRTITVKSPGDAEAVVEELKPLGWEVKEIKKDTANPNVYTVTVEKPSAGGSAGGSAGGS [r10_104_JUSTAS] | 0.198 ± 0.25 kcal/mol | 0.752 ± 0.15 kcal/mol
36 | SAGGSAGGSAKNTASLKKDDGFVAYNPKTGKYVAEVEVVKDDKDNIDLPLPNGDEVEIDAVGSAGGSAGGSA [r18_363_TrMRF] | -0.846 ± 0.44 kcal/mol | -0.54 ± 0.42 kcal/mol
37 | SAGGSAGGSAGGDEIAKQIAEHFREKGLDKNREIEIRNPENGEKITVRYTPEGGDFEVEPSAGGSAGGSAGG [r7_301_TrROS] | < -1 kcal/mol | -0.057 ± 0.17 kcal/mol
38 | SAGGMESPVKAVDPSTGAERSFTIPREEAEALLAAGETTIEIPYSGGPMTVEITPLPDGTYAITGKAPSAGG [r13_171_JUSTAS] | -0.16 ± 0.14 kcal/mol | 0.206 ± 0.24 kcal/mol
39 | SAGGSAGGSAGAEPLVREFEGRRIVLYREEDPGTARIEVFVGDKPYTVPLEYVPEELLLDSAGGSAGGSAGG [r11_152_TrMRF] | 0.325 ± 0.053 kcal/mol | 0.78 ± 0.085 kcal/mol
40 | SAGMKIKVPFKAEVAPGAKPVKVEVWLGDGPPVATARLYYKVPGEEKTEVALIPIDPSTGKVTVFVKPGSAG [r5_136_TrMRF] | 0.0709 ± 0.32 kcal/mol | 0.592 ± 0.26 kcal/mol
41 | SAGGSAGGSRWRVSFEGPNGGTQEHDIPVPPGEPVDLDEILDEFKEAHPGGPPRPIKIERPDPSAGGSAGGS [r12_262_TrROS] | -0.651 ± 0.33 kcal/mol | 0.232 ± 0.28 kcal/mol
42 | MTEKEIKEKAEEIAKKIAEEKGTEIKSAKIGGYVNVPVKVKEKLDENGKPVFEFEGKKVKVKVEVELKKKKS [r1_91_TrMRF] | < -1 kcal/mol | 0.567 ± 0.33 kcal/mol
43 | SAGGSADFQVEVERDPNNGYYEIEVRYPNGMPVEIEYNPKKNKIEVKVTPGFPPSMAENAAEELLDSAGGSA [r15_511_TrROS] | -0.535 ± 0.49 kcal/mol | 0.136 ± 0.058 kcal/mol
44 | SAGGKITIDVNYNPEENNFRIKITWPNGKEKELPIPMEGMPAEDMRREAREFAQNLNPDGLKEVEIEPSAGG [r13_267_TrROS] | 0.285 ± 0.43 kcal/mol | 0.369 ± 0.21 kcal/mol
45 | SAGGSAGGSMPEKKFKAEVVEEIEDPKTGKKFYFLKDTKQIFVENKDGSRTAITIDEDKLEIVSAGGSAGGS [r12_420_TrROS_Hall] | 0.0252 ± 0.15 kcal/mol | 0.433 ± 0.098 kcal/mol
46 | SAGGSAGGSAGGPWKIKEIETVPEGGKERMTIKIEDDNGKPKKPVHMPPDDLDNLPPDLISAGGSAGGSAGG [r7_263_TrROS] | < -1 kcal/mol | -0.605 ± 0.24 kcal/mol
47 | SVITANDIKEMRKLGIEPIEHDPDNRYRFKFPRMNQPIEVEVKPVPPPPPIEIPDNMDSPEEADKWQDTFSA [r9_649_TrROS] | 0.259 ± 0.23 kcal/mol | 0.565 ± 0.16 kcal/mol
